From US20150148405A1, “Expression Construct for a Lin28-Resistant Let-7 Precursor MicroRNA” (THE JOHNS HOPKINS UNIVERSITY, priority 2012, published 2015)

Key:
Assay type in all cases: cell-based, mouse
[1] = tested on: mature miRNA; test: miRNA profiling arrays (Taqman Rodent MicroRNA Array A); settings: BDNF 30 min, plus Actinomycin-D
Procedure: Murine hippocampal cultures were preincubated for 10-20 minutes with […] Actinomycin D and either mock- or BDNF- (100 ng/mL) stimulated for 30 minutes before harvesting.
For miRNA arrays, […] of total RNA for each sample was reverse-transcribed with stem-looped Megaplex RT Primers (Applied Biosystems) in a final volume of 7.5 μL according to manufacturer's instructions: preincubation at 4° C. for 5 min; 16° C. for 2 min, 42° C. for 1 min, 50° C. for 1 sec, 40 cycles; 85° C. for 5 min. The entire cDNA RT product (7.5 μk) was subjected to RT-qPCR on an Applied Biosystems 7900HT Fast Real-Time PCR system using Taqman Rodent MicroRNA Array A. Data were compiled in SDS RQ Manager 1.2.1 and analyzed in Data Assist 2.0 (Applied Biosystems); RQ was calculated as 2^−LCtBDNF/2^LCtmock where LCt=(cycle threshold for miRNA of interest)−(cycle threshold for reference control) (Schmittgen and Livak, 2008). Thresholds and cycle threshold (Ct) values were determined using default settings and the maximum allowable Ct value was set at 35.0 inclusive. Data were normalized by arithmetic mean using MammU6 (4395470) and snoRNA202 (4380914) reference RNAs as controls. miRNA array data are reposited with the NCBI Gene Expression Omnibus (GEO). […]

[2] = tested on: Let-7 family, miR-107, miR-143; test: Individual TaqMan RT-qPCR of mature miRNA levels; settings: BDNF vs mock, normalized to 18s rRNA
Procedure: For individual microRNA abundance assays (Applied Biosystems), 100 ng of total isolated RNA was prepared for reverse transcription with stem-looped primers specific for individual mature miRNAs in a final volume of 15 μL according to manufacturer's protocol; 4° C. for 5 min, 16° C. for 30 min, 42° C. for 30 min, 85° C. for 5 min. and subjected to TaqMan MicroRNA Assays (Applied Biosystems) for Let-7a (assay ID: 000377), Let-7b (002619), Let-7e (002406), Let-7f1 (000382), miR-107 (000443) and miR-143 ([…]). RT-qPCR was performed using a Stratagene Mx3000P machine and software with quantities derived by standard-curve quantitation method. The abundance of non-coding 18s rRNA in each sample was used as an internal control to normalize all miRNA species.

[3] = tested on: cultured neurons; test: 35S-labelling total protein synthesis; settings: mock or BDNF 100 ng/mL 2 hours, Actinomycin-D
Procedure: Cultured neurons were pre-incubated in media containing reduced-serum and Actinomycin-D as previously described, followed by washing and incubation for 10 min with methionine- and cysteine-free DMEM (Mediatech, Inc.), and ^35S labeling in the same DMEM with the addition of ^355-methionine/cysteine (^35S Met/Cys EasyTag Mix, Perkin Elmer) to a final concentration of […]. Mock- or BDNF stimulation was for 2 hours. Cells were washed and lysed with lysis buffer (see immunoblotting). Lysates were centrifuged and collected supernatants subjected to Bradford assay. To assess newly synthesized proteins, 200-500 μg of lysates proteins were precipitated with 10% trichloroacetic acid (TCA) for 1 hour on ice in the presence of 0.5% deoxycholate (DOC) to remove interfering phenol red. After centrifugation, protein pellets were washed with ice-cold 95% ethanol, solubilized in denaturing buffer ([…] Tris pH 8.3, 5 mM EDTA, 0.05% SDS, 6M urea), and subjected to liquid scintillation counting (Econofluor, New England Nuclear, Inc.). ^35S Disintegration per minute (DPM) was used to quantitate protein synthesis after subtraction of background readings.

[4] = tested on: GW182; test: Immunopurification of GW182: associated RNA, mRNAs and proteins
Procedure: Proteins and mRNAs associated with P-body component GW182 were isolated through immunoprecipitation of GW182 by modification of previously published protocols (Keene et al., 2006; Moser et al., 2009). Primary cultures of mouse hippocampal neurons (DIV 14-15) were incubated in serum-reduced medium (0.5% B27 supplement) for 2 hours, followed by […] Actinomycin-D for […] and mock or BDNF-stimulation for 30˜60 min. Cell lysates were harvested in polysomal lysis buffer (100 mM KCl, 5 mM MgCl2, 10 mM HEPES pH 7.0, 0.5% NP-40) with protease inhibitor cocktail and freshly added 20 mM EDTA, 1 mM DTT, 100 U/mL RNase inhibitor (RNaseOut, Invitrogen) and 400 μM Vanadyl ribonucleoside complexes (SIGMA). Lysates were centrifuged and the supernatants pre-cleared by one-hour incubation with recombinant protein G beads pre-washed in NT2 buffer (50 mM Tris-HCl pH 7.4, 150 mM NaCl, 1 mM MgCl2, 0.05% NP-40). Antibody coating of protein G beads was carried out with antiserum against GW182 (18033, gift of M. Fritzler) or control isotype-specific serum in NT2 buffer plus protease inhibitor for 4 hours after blocking with NT2 buffer plus 5% BSA and 1 mg/mL heparin for 1 hour. For immunoprecipitation (IP), equal amounts of lysate protein (2-5 mg) was incubated with antibody-coated beads and tumbled for 4 hours at 4° C., followed by washing. RNAs were recovered from GW182 immunoprecipitates by Tri-Reagent as described below. Recovered RNAs were resuspended in nuclease-free water, measured for RNA concentration, and immediately reverse transcribed into cDNA using a combination of random decamers and oligo(dT) primers. RT-qPCR was carried out as described below. To examine proteins co-immunoprecipitated with GW182, the washed IP beads were incubated in sample buffer at 95° C. for 5 minutes and subjected to SDS-PAGE electrophoresis and immunoblotting.

B1: BDNF: brain-derived neurotrophic factor, a neurotrophin used to stimulate hippocampal neurons (protein, UniProt P23560 19-247, looked up)
Neurotrophic factor BDNF …: APMKEANIRGQGGLAYPGVRTHGTLESVNGPKAGSRGLTSLADTFEHVIEELLDEDQKVRPNEENNKDADLYTSRVMLSSQVPLEPPLLFLLEEYKNYLDAANMSMRVRRHSDPARRGELSVCDSISEWVTAADKKTAVDMSGGTVTVLEKVPVSKGQLKQYFYETKCNPMGYTKEGCRGIDKRHWNSQCRTTQSYVRALTMDSKKRIGWRFIRIDTSCVCTLTIKRGR
- detectable miRNAs with significantly altered levels decreased to <50% [1]: 10.6%
- detectable miRNAs with significantly altered levels increased more than 2-fold [1]: 89.4%
- abundance of Let-7 family members, miR-107 and miR-143 [2]: significant and reproducible BDNF-induced decreases in abundance
- total protein synthesis (35S incorporation) [3]: modest enhancement of total translation
- association of P-body components Ago2 and Dcp1a with GW182 ([4]; co-immunoprecipitation, BDNF 1 hour): increased the association
- GW182-association of mRNAs whose translation is downregulated by BDNF (KCC2, Kv1.1) ([4]; control shRNA conditions): promoted the GW182-association
- GW182-association of mRNAs whose translation is upregulated by BDNF (GluR1, CaMKIIu, Homer2) ([4]; control shRNA conditions): reduced the GW182-association
